# In PMC2689706:
# Target: bacterially expressed GST-tagged eRF3 (UniProt P15170)
# Experiment: not stated; unpublished data; bacterially expressed GST-tagged eRF3 with partner translated in rabbit reticulocyte lysate
row,Kd [nM],Substance
1,5,rabbit reticulocyte-lysate-translated PABPC1 (from UniProt P11940 1-636) (natural protein)
2,> 1000,rabbit reticulocyte-lysate-translated hUpf1 (from UniProt Q92900 1-1129) (natural protein)
